Test results reported in patent US20100143888.

Biological target: T1, MOC-Arg-Ala-Glu-Leu-Gln-Gly-Pro-Tyr-Asp-Lys-DNP-NH2
T1 chain: RAELQGPYDK

B1: Human Rhinovirus serotype 1A 3C Protease (protein)
chain: GPEEEFGRSILKNNTCVITTGNGKFTGLGIHDRILIIPTHADPGREVQVNGVHTKVLDSYDLYNRDGVKLEITVIQLDRNEKFRDIRKYIPETEDDYPECNLALSANQDEPTIIKVGDVVSYGNILLSGNQTARMLKYNYPTKSGYCGGVLYKIGQILGIHVGGNGRDGFSAMLLRSYFTDTQ
Km (fluorescence resonance energy transfer protease activity assay): with a Km value of 16.8 µM
